Consider one sequence from article PMC5714352.

The series deals with NucT H124N (Helicobacter pylori 26695). As to the kind of experiment: EMSA.

“CAACGGCATAAAGCTTGACGATTACATTGCTAGGACATCTTTGCCCACCTGCAGGTTCACCC [substrate I (XV98, 62-mer ssDNA)]” had a Kd of 2 nM.
